Measurements reported in paper PMC5653232.

Biological target: H3K9Cme3-NCP (fluorescein-labelled DNA, unlabelled wild type H2A) (human) (UniProt P0C0S8)
Assay: fluorescence polarisation

CHD3 PHD1/2 (373–508), sequence (Q12873 373-508): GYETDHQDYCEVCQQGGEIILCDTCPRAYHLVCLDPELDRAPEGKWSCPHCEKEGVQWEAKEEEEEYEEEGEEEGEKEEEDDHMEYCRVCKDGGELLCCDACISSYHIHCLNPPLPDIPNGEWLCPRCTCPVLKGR

- Kd: 1400 nM
Substance: CHD3 PHD1/2 (373–508) (from UniProt Q12873 373-508) (domain or fragment)
